{
  "source": "paper PMC7150476",
  "biological_target": "STAT3 (UniProt P40763)",
  "experiment": "co-immunoprecipitation, Flag/Myc tags, Western blot",
  "settings": "reference: wild-type PLSCR1-2Flag; sites Y69,Y74",
  "data": [
    {"substance": "PLSCR1 (from UniProt O15162) PLSCR1-Y69,74F-2Flag", "values": [
      {"measurement": "binding against the reference", "result": "weaker"}
    ]}
  ]
}
